# Experimental data published in the supplement of paper PMC10219994.
# ± gives the standard deviation of the averaged measurements.
# B1: library; a variant is named by its letters at N, in order (parent)
# chain: GAGACCGCAACTGAAAAGTTGTGGNNNNNATAGTGAGTCGCTGCCTGCAAAGACACAACT
# Variants of: B1
# Assay: ligation selection enrichment (abundance after / before one-round selection) (fold); higher = more template-directed ligation activity
# Conditions: with T7Psub CACGGAUGCUAAUACGACUCACUAUA; MgCl2 25 mM; 42 °C; 4 h; pH 8.5
# Procedure, shortened: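 In each of two independent experiments, 6 μM RNA substrate was reacted for 4 h at 42 °C with 0.75 μM of a T7-transcribed RNA ligase library randomized at five core positions, in buffer containing 50 mM EPPS pH 8.5 and 25 mM MgCl2. Only reads scoring ≥30 in quality at all randomized positions were counted after MiSeq sequencing. Each enrichment value is the ratio of abundance after ligation to abundance before ligation.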
row,Variant,ligation selection enrichment
1,CTGCT,0.833 ± 0.12
2,CTGCC,0.138 ± 0.05
3,CTGCA,0.147 ± 0.0049
4,CTGCG,0.5 ± 0.22
5,CTTAA,0.257 ± 0.012
6,CTTAG,0.243 ± 0.0061
7,CTTAC,0.153 ± 0.015
8,CTTAT,0.512 ± 0.016
9,GTCCC,0.151 ± 0.0044
10,GTCCA,0.148 ± 0.0086
11,GTCCG,0.529 ± 0.022
12,GTCCT,0.266 ± 0.14
13,TTTCC,0.258 ± 0.0071
14,TTTCA,0.268 ± 0.026
15,TTTCG,0.632 ± 0.068
16,TTTCT,0.249 ± 0.052
17,ATGGT,0.181 ± 0.092
18,ATGGC,0.128 ± 0.0069
19,ATGGG,0.265 ± 0.05
20,ATGGA,0.662 ± 0.029
21,ATGTC,0.1721 ± 0.0012
22,ATGTG,0.566 ± 0.096
23,ATGTT,0.166 ± 0.064

row,Variant,ligation selection enrichment
1,ATGTA,0.206 ± 0.024
2,TTCTA,0.183 ± 0.035
3,TTCTG,0.954 ± 0.089
4,TTCTC,0.0957 ± 0.032
5,TTCTT,0.119 ± 0.006
6,ATACA,0.257 ± 0.032
7,ATACT,0.541 ± 0.11
8,ATACG,1.5 ± 0.28
9,ATACC,0.169 ± 0.016
10,TTAAT,7.9 ± 1.6
11,TTAAG,0.69 ± 0.15
12,TTAAA,0.329 ± 0.06
13,TTAAC,0.52 ± 0.0073
14,GTGGG,0.31 ± 0.013
15,GTGGC,0.18 ± 0.0046
16,GTGGA,1.76 ± 0.068
17,GTGGT,0.274 ± 0.0063
18,ATCGA,3.45 ± 0.064
19,ATCGT,0.723 ± 0.28
20,ATCGC,0.48 ± 0.024
21,ATCGG,0.801 ± 0.021
22,TGTTC,0.147 ± 0.071
23,TGTTG,1.1 ± 0.08

row,Variant,ligation selection enrichment
1,TGTTA,0.2185 ± 0.00099
2,TGTTT,0.468 ± 0.2
3,AGTGT,0.133 ± 0.035
4,CTTCC,0.27 ± 0.03
5,CTTCT,0.681 ± 0.22
6,CTTCG,1.47 ± 0.55
7,CTTCA,0.45 ± 0.093
8,GTATT,0.236 ± 0.12
9,GTATA,0.2557 ± 0.00086
10,GTATG,1.4 ± 0.24
11,GTATC,0.167 ± 0.036
12,TTACC,0.142 ± 0.02
13,TTACG,0.5128 ± 0.0029
14,TTACA,0.193 ± 0.00088
15,TTACT,0.603 ± 0.42
16,GTAGT,0.166 ± 0.037
17,GTAGC,0.191 ± 0.035
18,GTAGA,1.05 ± 0.13
19,GTAGG,0.422 ± 0.043
20,AGTTT,0.427 ± 0.11
21,AGTTC,0.176 ± 0.014
22,AGTTA,0.434 ± 0.065
23,AGTTG,3.78 ± 0.71
